Reference: patent publication JP2021054739A (dated 2021)

Target: T1, Recombinant Human CEACAM-5/CD66e Protein, CF (R&D SYSTEMS) (human, UniProt P06731 35-685)
T1 construct: Bought recombinant protein, immobilised on a CM5 chip by amine coupling; also called 抗原CEACAM5
T1 sequence (looked up): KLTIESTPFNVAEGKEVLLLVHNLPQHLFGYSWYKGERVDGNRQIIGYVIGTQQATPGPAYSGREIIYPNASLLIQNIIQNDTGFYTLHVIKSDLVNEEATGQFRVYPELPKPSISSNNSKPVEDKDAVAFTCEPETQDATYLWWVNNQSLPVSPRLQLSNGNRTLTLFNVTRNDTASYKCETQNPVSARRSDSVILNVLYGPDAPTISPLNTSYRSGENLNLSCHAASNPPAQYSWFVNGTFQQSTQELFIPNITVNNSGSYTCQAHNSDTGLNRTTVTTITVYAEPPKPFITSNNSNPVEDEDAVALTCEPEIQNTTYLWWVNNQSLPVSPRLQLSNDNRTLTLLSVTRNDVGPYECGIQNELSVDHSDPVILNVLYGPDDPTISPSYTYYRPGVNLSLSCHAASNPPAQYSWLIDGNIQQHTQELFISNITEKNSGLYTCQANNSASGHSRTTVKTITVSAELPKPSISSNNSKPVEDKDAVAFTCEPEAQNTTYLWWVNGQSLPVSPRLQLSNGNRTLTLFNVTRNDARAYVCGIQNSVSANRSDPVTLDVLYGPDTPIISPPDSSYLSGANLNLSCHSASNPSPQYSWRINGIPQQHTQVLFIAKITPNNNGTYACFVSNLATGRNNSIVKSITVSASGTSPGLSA
Experiment: SPR, Biacore T200; CEACAM5 immobilised on CM5 (279 RU), CEA-V2122 as analyte, single-cycle kinetics, bivalent analyte fit; KD = kd1/ka1

Kd: 1.08 pM
B1: CEA-V2122 (scFv)
chain: QVKLEQSGAEVVKPGASVKLSCKASGFNIKDSYMHWLRQGPGQRLEWIGWIDPENGDTEYAPKFQGKATFTTDTSANTAYLGLSSLRPEDTAVYYCNEGTPTGPYYFDYWGQGTLVTVSSGGGGSGGGGSGGGGSENVLTQSPSSMSVSVGDRVNIACSASSSVPYMHWLQQKPGKSPKLLIYLTSNLASGVPSRFSGSGSGTDYSLTISSVQPEDAATYYCQQRSSYPLTFGGGTKLEIKGGGGSGGGGAEAGITGTWSDQLGDTFIVTAGADGALTGTYENAVGGAESRYVLTGRYDSAPATDGSGTALGWTVAWKNNSKNAHSATTWSGQYVGGADAKINTQWLLTSGTTNANAWKSTLVGHDTFTKVKPSAASHHHHHH
notes: Fusion of an scFv with a streptavidin mutant; also called scFv-V2122; CEA-Cupid
